Test results as given in patent publication US20230068663A1 (University of Texas, published 2023).

T1: LAIR1 on reporter cells (UniProt Q6GTX8 22-165, limits assumed)
T1 sequence (looked up): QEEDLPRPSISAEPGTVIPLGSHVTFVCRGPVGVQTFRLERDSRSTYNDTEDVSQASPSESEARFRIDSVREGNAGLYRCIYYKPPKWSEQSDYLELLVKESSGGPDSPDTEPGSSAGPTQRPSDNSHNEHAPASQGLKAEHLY

B1: B2-15 (antibody, V domains shown)
VH: EVQLVQSGAEVKKSGASVKVSCKSSGYTFTNYGISWVRQAPGQGLEWMGWISGDAGDTKFAQKFQGRVTMTTDTSTTTTYMELRSLRSDDTAVYYCARDGEYIPMFRGFDNYYGLDVWGQGTLVSVSS
VL: QSVLTQPPSASATPGQRVTISCSGRNANIGSNPVNWYQQLPGTAPRLVMYSNNQRPSGVPDRFSGSKSGTSASLAISGLQSEDEADYYCEGWDDSLNGYVFGTGTKVTVL
notes: also called B-15; B2-15_HC
B2: B2-19 (antibody, V domains shown)
VH: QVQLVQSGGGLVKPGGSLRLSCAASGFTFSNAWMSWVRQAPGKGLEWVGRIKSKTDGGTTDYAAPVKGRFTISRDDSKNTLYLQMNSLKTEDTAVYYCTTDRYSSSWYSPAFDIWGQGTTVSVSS
VL: QPVLTQPPSVSEAPRQRVTISCSGSSSNIGNNVVNWYQQLPGKAPKLLIYYDDLLPSGVSDRFSGSKSGTSASLAISGLQSEDEADYYCATWDDSLNGPVFGGGTKLTVL
notes: also called B2-19_HC; B2-19_LC
B3: B2-16 (antibody, V domains shown)
VH: QVQLVQSGAEVKKPGSSVKVSCKASGGTFSSYAISWVRQAPGQGLEWMGGIIPIFGTANYAQKFQGRVTITADESTSTAYMELSSLRSEDTAVYYCASGIIPDNPYGMDVWGQGTMVSVSS
VL: DIVMTQSPLSLPVTLGQPASISCTSSQSLVYSDGNTYLNWFHQRPGQSPRRLFYKVSNRASGVPDRFSGSGSGTDFTLKISRVEAEDLGVYYCMQGTHWPVTFGQGTRLEIK
notes: also called B2-16_HC; B2-16_LC
B4: B2-7 (antibody, V domains shown)
VH: EVQLVESGGGVVQPGRSLRLSCAASGFTISSYGMHWVRQAPGKGLEWVAVISYDGSNKYYADSVKGRFTISRDNSKNTLYLQMNSLRVEDTAVYYCAKDLLLRYFDWSPKYYYNGMDVWGQGTMVTVSS
VL: QSVLTQPPSVSVAPGKTARITCGGNNIGSKSVHWYQQKPGQAPVLVVYDDSDRPSGIPERFSGSNSGNTATLTISRVEAGDEADYYCQVWDSSSDHPGVFGTGTKVTVL
notes: also called B2-7_HC; B2-7_LC
B5: B2-17 (antibody, V domains shown)
VH: EVQLLDSGPRLLKPSETLSLTCGVSGVSTSSTHWWSWVRQTPGKGLEWIGEILHNGNTNSNPSLKSRVSMSIDKSRNQFSLQLKSMTAADTAVYYCASASPNWGASGAFDAWAQGTMVTVSS
VL: QSVLTQPPSASATPGQRVTISCSGSSSNIGSNPVNWYQQVPGMAPELVMYSDNQRPSGVPDRFSGSNSGTSASLAISGLQSEDEADYYCSTWDDSLNGLVFGTGTKVTVL
notes: also called B2-17_HC; B2-17_LC

The binders below were run against T2, full length human LILRB2 stably expressed on HEK293 cells (human, UniProt Q8N423 22-597) (assay: competition flow cytometry, inhibition of HLA-G-His binding to HEK293 cells expressing LILRB2).
T2 construct: whole, on cells; also called HEK293_LILRB2
Experimental: FIG. 33. […] All incubations were performed for 30 minutes at 4° C. Data shown is averaged geometric mean of fluorescence intensity ± standard error of the mean (s.e.m.) from duplicate samples acquired in a flow cytometer (BD FACS Celesta).

IC50 | Binder
0.16 µg/mL | B1
0.583 µg/mL | B2
0.915 µg/mL | B3
0.507 µg/mL | B4
0.209 µg/mL | B5

Each binder was assayed against T3, LILRB2 chimeric receptor on LILRB2 reporter cells (extracellular domain of LILRB2 fused with … (UniProt Q8N423 22-460)) (assay: flow cytometry, LILRB2 reporter cells).
T3 construct: extracellular domain;domain: transmembrane/intracellular domains; associates with DAP12; also called LILRB2-expressing reporter cells
Text: (§1) FIGS. 1A-C. Screening specific monoclonal antibodies for LILRB2. […] Binding of monoclonal antibodies was screened using flow cytometer on LILRB2 reporter cells. Bound antibodies were detected with Allophycocyanin (APC)-labeled goat anti-human IgG secondary antibody. (FIG. 1B) Quantification of binding ability of monoclonal antibodies to LILRB2 reporter cells.
(§2) Screening specific monoclonal antibodies for LILRB2. The inventors employed a stable reporter cell system to detect the binding ability of selected monoclonal antibodies to LILRB2. In this chimeric receptor reporter system, the extracellular domain (ECD) of LILRB2 is fused with transmembrane/intracellular domains of PILRb that associates with the adaptor protein DAP12 containing an immunoreceptor tyrosine-based activation motif. 27 monoclonal antibodies were screened. The LILRB2 reporter cells were incubated with selected monoclonal antibody, then labeled with (APC) goat anti-human IgG secondary antibody. […] The inventors generated LILRBAs and LILRBs reporters stably transduced with each receptor's extracellular domain (ECD).

% of cells anti-hIgG APC+ | Binder
94.3% | B1
95.3% | B2
95% | B3
94.2% | B4
94.3% | B5

These binders were tested against T1, LAIR1 on reporter cells (assay: flow cytometry, reporter cells).
Experimental: FIG. 29. Binding of LILRB2 antibodies on reporter cell line expressing ectodomain of LILR family proteins on cell surface. Bound antibodies were detected with anti-human Fc-specific secondary antibody (2nd Ab) conjugated to AF647. […] All incubations were performed for 30 minutes at 4° C. Data shown is mean fluorescence intensity after sample acquisition in flow cytometer.

MFI | binding result | Binder
22 | no binding | B1
22 | no binding | B2
24 | no binding | B3
23 | no binding | B4
23 | no binding | B5

Each binder was assayed against T3, LILRB2 chimeric receptor on LILRB2 … (assay: flow cytometry on LILRB2 reporter cells, APC anti-human IgG).
Text: as §1, §2

percent of LILRB2 reporter cells labeled | Binder
> 95% | B1
> 95% | B2
> 95% | B3
> 95% | B4
> 95% | B5
